According to the DeepSol protein solubility set:

assay: soluble on expression in E. coli; label from the status in PepcDB or PDB records

| Sequence | soluble on expression in E. coli |
| --- | --- |
| MGSDKIHHHHHHMIPIEIDSGSGFCFGVVNAIRHAEKQLEKSSDKLYCLGDIVHNTLEVERLGKKGLETIDYDAFSRLRGAKVLLRAHGEPPEIYRMAGENGVTIIDATCPVVLRLQNKIKSRYEATRSLGAQVVIYGKRGHAEVNGLVGQTEGTAIVIESEEELDKIDYTRPVILFSQTTKSLEGFGQIIDSISTRMQPGVTFEHHDTICRQVANRIPHIGAFATAHELVFFVAGEKSSNGKVLFGHCLAANPRSIFISSPEVIVPDMLVPLPASIGICGATSTPRWQMEEVASHIKALL | not soluble |
| MSLDPQYDGVWRQSLALLAQDTAGVIPSSTAVKWLTDQQCANGAFAPFRADPAKACDAKTPVDTNNTAAAVQALWAVGGHGDVIEEALGWLKSVQNEDGGWGYVPGTPSDANSTSVVIGALTATETDPAKVVKDGKSPYDALLTFALPCAKDKGAGAFAFQPDKDGKLLPNADATAAGVLGTLGEGLVAEAGKKTGAASCADADQPDRERAAANAAAYLTDTLAKDGHLVSALGGSADQPDYGNTADAVVALAAQGGADKAAEPLAWLKKNAAKWAGEGHHHHHH | soluble |
| MGSDKIHHHHHHMNKPCIISVAITGSLPRKKDNPAVPITVSEQVESTQAAFEAGATLVHLHVRNDDETPTSNPDRFALVLEGIRKHAPGMITQVSTGGRSGAGNERGAMLSLRPDMASLATGSVNFPTRVYDNPPELVDWLAAEMKTYGIKPEVEAFDLSMIFQAAAMQAAGAIVGPLHIQFVMGIKNAMPVDREVLEFYVQTLKRLSPDATWTGAGIGRHQLTMARWSLELGGHCRTGLEDNVRLDKNTLAPSNAALVRQVAELCEEYGRPVATAAQAREIMSLG | not soluble |
| MKLVRPQKISDQVLSVLEERIAEGVYAEGGKIPPERVLAEEFGVSRPSVRSALNVLVARQVLEARQGDGYYVSVKPQQDFLQSWQELLGKHSNWEQDVFDFSCHIEGCMAALAAERRTDADLKRIGFWLEKFEEACESGNLEHQSEADVSFHQTIADAAHNLLFSHLSGGLLKMLYRQTRSSLIYLNQEEDPRPKLMAQHRVLYEAISNRRPGEASEAAKAHLNYVASSILKDREYQSRNRHADTLAQNDLKRVQDWAV | soluble |
| MLKYMLDTNIAIYVIKRRPIEVLVTFNRYADMMCVSAVTEAELLHGAEKSRQREHNLRQVADFLSRLEVLSYTSKAAGHYGDIRADLERKEKPIGVNDLHIAAHARSEGFILVSNNLREFERVDGLRLENWIT | not soluble |
| MLDFAAIDFETANAERTSVCSVGIIVVRGGQIVHRYYSLIRPEPDYYNYHNTRVHGLTAADTESARIFPDVWAEVEPLIAGLPLVAHNKPFDEGCLKAVFRMYRMDYPDYPFFCTLQAARRQLRHLSDHRLPTVAQCCGYTLAQHHQALADAEACAAIALKLL | not soluble |
| PDPVRLEIFKNLYQFIAEQMGIVLQNTAASVNIKERLDFSCAIFDSSGLLVANAPHIPVHLGSMSESVCSLINDKGETIKPGNVYLSNNPYNGGTHLPDVTAITPVFPETQENPPTPLFYVASRGHQADIGGITPGSMPPHSTTVEEEGILFDNFLLVEAGNFQEIQVRNLLANHLYPARNPDQNIADFQAQIAANERGVKELHKMVAQYGLPIVQVYMKFVQDNAGESVRRAIDVLKDGTFIYEMDGGAKIQVKVTINREKRSAEIDFTGTSEQLNSNFNAPKAVTQAAVLYVFRTLVDDNIPLNAGCLKPLDIIVPEGCMLNPTYPSAVVAGNVETSQTIVDALYGALSVMAASQGTMNNFTFGSDRYQYYETICGGSGAGSNFDGTDAVHTHMTNSLLTDPEVLETRYPVLVESFSLRSDSGGKGKYSGGNGVVRRIRFLEPMTANILSGHRLVPPFGLNGGEAGQVGHNRIERHDGTQENLDSTATAEMQPGDVFVIETPGGGGFG | not soluble |
| SLSHGKGTDMLPEIAAAVGFLSSLLRTRGCVSEQRLKVFSGALQEALTEHYKHHWFPEKPSKGSGYRCIRINHKMDPIISRVASQIGLSQPQLHQLLPSELTLWVDPYEVSYRIGEDGSICVLYEEAPLAASCGEG | soluble |
| MGGSHHHHHHGMASMTGGQQMGRTLYDDDDKDRWGSKIVVVGANHAGTACIKTMLTNYGDANEIVVFDQNSNISFLGSGMALWIGEQIAGPEGLFYSDKEELESLGAKVYMESPVQSIDYDAKTVTALVDGKNHVETYDKLIFATGSQPILPPIKGAEIKEGSLEFEATLENLQFVKLYQNSADVIAKLENKDIKRVAVVGAGYIGVELAEAFQRKGKEVVLIDVVDTCLAGYYDRDLTDLMAKNMEEHGIQLAFGETVKEVAGNGKVEKIITDKNEYDVDMVILAVGFRPNTTLGNGKIDLFRNGAFLVNKRQETSIPGVYAIGDCATIYDNATRDTNYIALASNAVRTGIVAAHNACGTDLEGIGVQGSNGISIYGLHMVSTGLTLEKAKRLGFDAAVTEYTDNQKPEFIEHGNFPVTIKIVYDKDSRRILGAQMAAREDVSMGIHMFSLAIQEGVTIEKLALTDIFFLPHFNKPYNYITMAALGAKD | soluble |
| AHHHHHHGSDCGKDYCVKDLSLAEEGWKKIDWVSRFMPVLQYIKREFEEKKPFKGVRIAATLHLEMKTAFLLLTLKAGGAEVSAAASNPLSTQDDVVAALAKAGVKVYAIRGESREQYYEFMHKALDIRPNIIIDDGADMISLVHKERQEMLDEIWGGSEETTTGVIRLRAMEKAGILKFPVIAVNDSYMKYLFDNRYGTGQSTWDGIMRATNLLIAGKNVVVVGYGWCGRGIAMRARGLGATVIVVEVDPIKALEARMDGFLVMDMKEAAKIGDIFVTATGNIKCIRREHFELMKDGAIMANAGHFDVEIWKPDLEKLAVEINNPRPNVTEYKLKDGRRLYLLADGRLVNLVAADGHPAEIMDMSFALQAKAAEYIKDNHERLEPKVYILPREIDEMVARIKLESMGIKIEELTEEQKKYLESWEHGT | soluble |
| MSIKIGLLGFGTVASGIPFLLKENGEKVFAASRDQLEIAKVLVKDDEEKDRLIAAGNDYNFVTNVDEILNDEEIQIVVELMGRIEPARTFITKALEAGKNVVSANKDLIATHGKELIALAQDKGVAFYYEAAVAGGIPILRTLANSLTSDKVTRILGVLNGTSNFMMTKMVDEGWSYEDALKTAQELGYAESDPTNDVEGYDAAYKAVILSQFGFGATIDFDDVSHKGITNISTDDVAVAQELGYVIKLVGDVREVESGISAEVSPTFLPKNHPLASVNDVMNAVFVESIGIGESMYYGPGAGQKPTATSVLADIIRIARRLSDGNVGKPFNEFRRDLPLANPADVKSNYYFALDTPDEKGKILHLSEIFNSEDISFEQVLQQKANGTTARIVVITHAMSKTQLKAVTEKLEAAEDFTVVNTLKVLSNLEHHHHHH | soluble |
| NKLAQKYDHQREQELREWIEGVTGRRIGNNFMDGLKDGIILCEFINKLQPGSVKKINESTQNWHQLENIGNFIKAITKYGVKPHDIFEANDLFENTNHTQVQSTLLALASMAKTKGNKVNVGV | soluble |
| MGSDKIHHHHHHMSIFVKTFGGTRVIKDNDIVSARDWPSQKAFALFRYLIFRRNEEVSVEEIYNLFWEDMDDTFAKSNLNTTLHIIRKTTGITSEELFVKGDLCCFFPGGEITIDADIFEECHRNLMKATSDAEREKLLKRMFEIYTGPFLVEDIFAEWVQEIREIYESWYSDVLKELFKLYLSKKDYDAALEMVNAYFQREPYDEDMYYRAIEVLLKKGDITRAKRVYDKLSSHLMEIGIKPRLKFDDFLSKRDSEFMLNGNKAVVVDEKLFERFLFLESRRREKSFVLVEVKLTDKSISTEDVSQRVASQLRKGDVITFSGETIRILFHCPEQRRPTMEKRVVDALEKVGVKKGQYEIS | not soluble |
| NGQSDVKHIGILQYVEHPSLTATRKGFIKELAKEGYKDGKNIKIEYKNAQGDQSNIQSISEKLIKDNKLVLGIATPAAQSLTTVSTETPILFTAVTDPVSAELVKSMKKPEGLATGTSDMSPIKKQVSLLRKVMPKVKRVGIMYTTSERNSEVQVKQAKKIFQEAGIKTSVKGISSTNDVQDTAKSLMSKTEVIFVPTDNIIASSVTLLGNLSKELKVPVVGGSADMVPSGLLFSYGADYEALGRQTARQAVKILKGKDVAKVPSEYPQNLKVVVNEDMAKELGIDVSSIK | not soluble |
| MNEFEDLLNSVSEVNPGDVVTAEVLTVDGEQANLVIDGTGVEAVLTLRELTNDRNADINDFVKAGDKVEVLVLRQVVGKDTDTVTFLVSKKRLEARKAWDKLVGREGDVVTVKGTRAVKGGLSVEFEGLRGFIPASMIDTRFVRNTEKFVGQQFEAKIKEIDPSENRFILSRRDVVEAAAAKAREEVFSRLAVGDIVTGTVARLTSFGAFIDLGGVDGLVHITELSHERNVSPKSVVTVGEEIQVKVLAIDEEAGRVSLSLKATTPGPWDGVEQKLAAGDVIEGKVKRLTDFGAFVEVLPGIDGLVHISQISHKRVENPKDVLSVGQDVTVKVLDVNTADERVSLSIKALEERPAQDESNGEKRQSRPRRQKRQDKRDYELPETQTGFSMADLFGDIELLEHHHHHH | soluble |
| MDEEPERTKRWEGGYERTWEILKEDESGSLKATIEDILFKAKRKRVFEHHGQVRLGMMRHLYVVVDGSRTMEDQDLKPNRLTCTLKLLEYFVEEYFDQNPISQIGIIVTKSKRAEKLTELSGNPRKHITSLKKAVDMTCHGEPSLYNSLSIAMQTLKHMPGHTSREVLIIFSSLTTCDPSNIYDLIKTLKAAKIRVSVIGLSAEVRVCTVLARETGGTYHVILDESHYKELLTHHVSPPPASSSSECSLIRMGFPQHTIASLSDQDAKPSFSMAHLDGNTEPGLTLGGYFCPQCRAKYCELPVECKICGLTLVSAPHLARSYHHLFPLDAFQEIPLEEYNGERFCYGCQGELKDQHVYVCAVCQNVFCVDCDVFVHDSLHCCPGCIHKIPAPSGV | soluble |
| MNYKITTLVENCVYGRKLQAEHGLSLYIETPENRLLFDTGASDLFIRNARLLNIDLQKVDYLVLSHGHSDHTGGLRHFLELNAEATVVCKREVFFSKFKDERENGMKYTRSLDLSRFRFIDELTELVPGVFLFPSVDIIDPKDTHFERFWIQKEDGSRVPDTFPDELAMVLVEPEGLSILSACSHRGITNILRTVRTAFPELPCNLLLGGFHIHNAEESKYQVIADYLHEYLPQKIGVCHCTGVDKYAFFYKDFGDRIFYNHTGKLIQTDSLL | not soluble |
| MELLPQGQRNNTQVTFEDQQKINEFSKLIMRKDAIAQELSLQREEKEYLDDVSLEIELIDEDEPVQYKVGDLFIFMKQSKVTAQLEKDAERLDNKIETLEDKQRDIDSRLDALKAILYAKFGDNINLER | not soluble |
| MSPEGAERYDRNCDHQFQKGHVLIEMMGIKKGDFVLDVGCGTGRQALNVAGIIGPAGKLTGIDPSSYRIELARKKFEGDSSGNVRFLVRQAENLQDIPDNSINHAYFCSSFHWVDDKKTALNEIFRVLRPGGKVGMTTLDRNSPNTMKALIDPILAKFGIERRHEWHRGMKKVTAPELHDLLSGAGFTSISIEPRAVPRKYNSPEEFLQHPEEKDSSRGILRDISNETLEKLRQEITEEFRKAQTPEDIGFGNITLFAIATKAQEGLEHHHHHH | not soluble |
| SIKNGILYLEDPVNHEWYPHYFVLTSSKIYYSEETSSDQGNEDEEEPKEASGSTELHSSLEVLFQGPNPAILEPEREHLDENSPLGDLLRGVLDVPACQIAIRPEGKNNRLFVFSISMPSVAQWSLDVAADSQEELQDWVKKIREVAQTA | soluble |
| MAHHHHHHMAALQHVNSATEITPLLACGGDYVKNGTQTLSIPSVYATLDALESLWQAQREKQHLSVRGRAQGLRHYHAVYEASARCVPLSLTRWEQWLAGLSEQGARSTVGACPDELSSSSSPHVQRVQKELVDSYWHLYRRLCWGSSGAAKAGLAAVLEHTDSAASGLPSVMATGAASLLAKQEAALAKPLQAFARLSADRHTCSPITR | not soluble |
